According to paper PMC10121161, “Delivering a toxic metal to the active site of urease” (Science Advances, 2023):

B1: HpUreD(E140A) with C-terminal Strep-tag II, in the cryo-EM sample (natural protein)
chain: MNTYAQESKLRLKTKIGADGRCVIEDNFFTPPFKLMAPFYPKDDLAEIMLLAVSPGMMRGDAQDVQLNIGPNCKLRITSQSFEKIHNTEDGFASRDMHIVVGENAFLDFAPFPLIPFENAHFKGNTTISLRSSSQLLYSAIIVAGRVARNELFKFNRLHTKISILQDEKPIYYDNTILDPKTTDLNNMCMFDGYTHYLNLVLVNCPIELSGVRECIEESEGVDGAVSETASSHLCVKALAKGSEPLLHLREKIARLVTQTTTQKV
notes: Helicobacter pylori urease accessory protein HpUreD (encoded by ureH); also called UreH

Legend:
Assay in all cases: cryo-EM structure; HpUreFD/urease complex coexpressed in E. coli, purified by Strep-Tactin XT and Superose-6 SEC in 50 mM Hepes, 200 mM NaCl, 0.5 mM TCEP (pH 7.5); 0.5 mg/ml on grids; tetrahedral symmetry; 2.3 Å
Settings in all cases: both partners purified
[1] = biological target: T1, H. pylori urease (HpUreAB), in the cryo-EM sample (Helicobacter pylori, UniProt P14916 1-238; P69996 1-569)
T1 construct: Helicobacter pylori urease subunit HpUreA (γ and β domains); Helicobacter pylori urease subunit HpUreB (α domain); dodecamer of HpUreAB catalytic units (four trimers); copies: 12 + 12

[2] = biological target: T2, HpUreB (H. pylori urease subunit, α domain), in the cryo-EM sample (Helicobacter pylori, UniProt P69996 1-569)
T2 construct: Helicobacter pylori urease subunit HpUreB (α domain)

[3] = biological target: B1

T2 sequence (P69996 whole entry): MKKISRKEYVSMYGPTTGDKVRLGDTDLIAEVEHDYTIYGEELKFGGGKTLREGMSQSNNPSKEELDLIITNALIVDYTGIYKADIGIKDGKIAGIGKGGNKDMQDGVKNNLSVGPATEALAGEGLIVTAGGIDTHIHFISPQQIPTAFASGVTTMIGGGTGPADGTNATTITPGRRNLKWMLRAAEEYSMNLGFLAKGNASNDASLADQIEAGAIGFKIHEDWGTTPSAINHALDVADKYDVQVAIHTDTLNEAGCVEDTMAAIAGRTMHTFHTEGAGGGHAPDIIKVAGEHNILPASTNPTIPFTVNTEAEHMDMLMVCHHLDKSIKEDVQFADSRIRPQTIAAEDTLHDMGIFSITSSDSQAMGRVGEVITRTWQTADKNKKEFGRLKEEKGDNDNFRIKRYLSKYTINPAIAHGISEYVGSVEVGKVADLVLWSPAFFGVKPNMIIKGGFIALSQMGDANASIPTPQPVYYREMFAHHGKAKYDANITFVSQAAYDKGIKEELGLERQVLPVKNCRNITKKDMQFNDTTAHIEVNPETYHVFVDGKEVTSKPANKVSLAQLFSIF
T1 sequence (P69996 whole entry, one chain of several): as the sequence (P69996 whole entry) above

Binder	binding result [1]	binding result [2]	binding result [3]
HpUreF(R179A/Y183D)/HpUreD(E140A)-Strep complex, in the cryo-EM sample (complex, Helicobacter pylori urease accessory protein HpUreF; Helicobacter pylori urease accessory protein HpUreD (encoded by ureH); one copy of HpUreF and one of HpUreD per urease catalytic unit; also called HpUreFD) chain 1: MDKGKSVKSTEKSVGMPPKTPKTDNNAHVDNEFLILQVNDAVFPIGSYTHSFGLETYIQQKKVTNKESALEYLKANLSSQFLYTEMLSLKLTYESALQQDLKKILGVEEVIMLSTSPMELRLANQKLGNRFIKTLQAMNELDMGEFFNAYAQKTKDPTHATSYGVFAASLGIELKKALAHYLDAQTSNMVINCVKSVPLSQNDGQKILLSLQSPFNQLIEKTLELDESHLCTASVQNDIKAMQHESLYSRLYMS chain 2: MNTYAQESKLRLKTKIGADGRCVIEDNFFTPPFKLMAPFYPKDDLAEIMLLAVSPGMMRGDAQDVQLNIGPNCKLRITSQSFEKIHNTEDGFASRDMHIVVGENAFLDFAPFPLIPFENAHFKGNTTISLRSSSQLLYSAIIVAGRVARNELFKFNRLHTKISILQDEKPIYYDNTILDPKTTDLNNMCMFDGYTHYLNLVLVNCPIELSGVRECIEESEGVDGAVSETASSHLCVKALAKGSEPLLHLREKIARLVTQTTTQKV	binds	–	–
B1	–	binds	–
HpUreF(R179A/Y183D), in the cryo-EM sample (natural protein, Helicobacter pylori urease accessory protein HpUreF; everywhere else R179A/Y183D) MDKGKSVKSTEKSVGMPPKTPKTDNNAHVDNEFLILQVNDAVFPIGSYTHSFGLETYIQQKKVTNKESALEYLKANLSSQFLYTEMLSLKLTYESALQQDLKKILGVEEVIMLSTSPMELRLANQKLGNRFIKTLQAMNELDMGEFFNAYAQKTKDPTHATSYGVFAASLGIELKKALAHYLDAQTSNMVINCVKSVPLSQNDGQKILLSLQSPFNQLIEKTLELDESHLCTASVQNDIKAMQHESLYSRLYMS	–	–	binds
HpUreA (H. pylori urease subunit, fusion of the γ and β domains), in the cryo-EM sample (natural protein, Helicobacter pylori urease subunit HpUreA (γ and β domains)) MKLTPKELDKLMLHYAGELAKKRKEKGIKLNYVEAVALISAHIMEEARAGKKTAAELMQEGRTLLKPDDVMDGVASMIHEVGIEAMFPDGTKLVTVHTPIEANGKLVPGELFLKNEDITINEGKKAVSVKVKNVGDRPVQIGSHFHFFEVNRCLDFDREKTFGKRLDIASGTAVRFEPGEEKSVELIDIGGNRRIFGFNALVDRQADNESKKIALHRAKERGFHGAKSDDNYVKTIKE	–	binds	binds
